Results on one substance are retold here after US9926369B2, “Methods for treating hepatocellular cancer by administering an anti-Ang-2 antibody” (Regeneron Pharmaceuticals, Inc., priority 2009, dated 2018).

As a reminder, the Kd is a measure of binding affinity in units of concentration. A high value points to lower affinity.

For experiment [1], the target named is T1, hAng-2-WT (Homo sapiens, UniProt O15123).
T1 construct: wild-type human Ang-2 (hAng-2-WT)
T1 sequence (O15123 19-496): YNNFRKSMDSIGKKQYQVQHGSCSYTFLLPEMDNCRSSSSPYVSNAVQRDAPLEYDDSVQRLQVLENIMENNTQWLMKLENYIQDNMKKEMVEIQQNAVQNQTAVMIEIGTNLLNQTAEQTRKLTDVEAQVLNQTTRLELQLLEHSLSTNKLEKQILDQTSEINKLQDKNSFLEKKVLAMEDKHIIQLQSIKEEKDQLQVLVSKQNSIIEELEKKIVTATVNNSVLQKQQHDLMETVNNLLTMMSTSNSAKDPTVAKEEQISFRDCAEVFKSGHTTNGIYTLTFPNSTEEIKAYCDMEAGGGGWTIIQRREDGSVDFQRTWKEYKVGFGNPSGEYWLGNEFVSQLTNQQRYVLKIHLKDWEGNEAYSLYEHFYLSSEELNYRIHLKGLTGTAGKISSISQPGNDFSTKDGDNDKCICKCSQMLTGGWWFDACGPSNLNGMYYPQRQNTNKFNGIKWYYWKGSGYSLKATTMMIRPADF
Nature of the experiment: SPR binding to wild-type human Ang-2 (Table 8). The protocol: Equilibrium dissociation constants (KD values) for the binding of selected purified Ang-2 antibodies to dimeric fibrinogen-like domain of human (SEQ ID NO: 519), mouse (Mus musculus; SEQ ID NO: 520) and monkey (Macca fascicularis; SEQ ID NO: 521) Ang-2 (Ang-2FD) conjugated to human IgG1 (SEQ ID NO:528) were determined by surface kinetics using a real-time biosensor surface plasmon resonance assay. Antibody was captured on a goat anti-mouse IgG polyclonal antibody surface, a goat anti-human κ polyclonal antibody (Southern Biotech, Birmingham, Ala.) surface or a goat anti-human IgG polyclonal antibody (Jackson Immuno Research Lab, West Grove, Pa.) surface created through direct amine coupling to a BIACORE™ CM5 sensor chip to form a captured antibody surface. Varying concentrations (ranging from 50 nM to 6.25 nM) of protein were injected at 100 μl/min over captured antibody surface for 90 seconds. Antigen-antibody binding and dissociation were monitored in real time at room temperature. Kinetic analysis was performed to calculate KD and half-life of antigen/antibody complex dissociation.
In yet another experiment, KD values for selected purified antibodies that bind to wild-type human Ang-2 (hAng-2-WT; SEQ ID NO: 518) and the fibrinogen-like domain of human Ang2 (hAng-2FD) were determined (as described above).

Experiment [2] deals with T2, hAng-2FD-mFc F-469-L (Homo sapiens, UniProt O15123, F469L).
T2 construct: made in house
T2 sequence (O15123 with tags, fused parts or gaps F469L): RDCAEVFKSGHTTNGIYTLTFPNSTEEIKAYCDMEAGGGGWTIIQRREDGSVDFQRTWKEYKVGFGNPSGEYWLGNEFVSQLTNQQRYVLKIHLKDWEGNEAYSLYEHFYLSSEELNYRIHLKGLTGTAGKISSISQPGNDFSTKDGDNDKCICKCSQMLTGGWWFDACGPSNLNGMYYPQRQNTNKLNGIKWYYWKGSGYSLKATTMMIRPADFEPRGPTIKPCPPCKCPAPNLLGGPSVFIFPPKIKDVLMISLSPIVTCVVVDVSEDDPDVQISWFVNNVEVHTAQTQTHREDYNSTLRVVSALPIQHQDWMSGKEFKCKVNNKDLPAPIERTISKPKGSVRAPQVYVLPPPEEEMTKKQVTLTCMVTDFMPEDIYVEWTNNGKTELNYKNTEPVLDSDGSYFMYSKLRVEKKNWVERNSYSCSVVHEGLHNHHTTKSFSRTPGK
Nature of the experiment: Ang-2FD-mFc point mutant binding experiment (SPR), F-469-L. As to conditions: F-469-L mutant captured; antibody/peptibody at 100 nM; 25° C. The source says: (§1) To further characterize binding between hAng2 and anti-hAng2 mAbs of the invention, seven variant hAng2-FD-mFc proteins were generated, each containing a single point mutation. Amino acids selected for mutation were based on the difference in sequence between hAng-2 and hAng-1 in the region that interacts with hTie-2 (FIG. 1). In particular, amino acids within the fibrinogen-like domain (FD) of Ang-2 which are believed to interact with Tie-2 based on crystal structure analysis, but which differ from the corresponding amino acid in Ang-1, were individually mutated to the corresponding hAng-1 residue. The results of this example indicate the amino acid residues of hAng-2 with which the Ang-2 preferential binding antibodies interact.
(§2) In this experiment, each of the seven hAng-2FD-mFc mutant proteins were captured (˜147-283 RU) on an anti-mouse-Fc surface created through direct chemical coupling to a BIACORE™ chip. Then each Ang-2 antibody (or peptibody, as the case may be) at 100 nM was injected over the captured mFc-tagged hAng-2FD protein surface at a flowrate of 50 μl/min for 180 sec, and the dissociation of variant hAng2-FD-mFc and antibody was monitored in real time for 20 min at 25° C.

Experiment [3] has as its target T3, hAng-2FD-mFc S-417-I (Homo sapiens, UniProt O15123, S417I).
T3 construct: made in house
The experiment in a line: Ang-2FD-mFc point mutant binding experiment (SPR), S-417-I. Conditions: S-417-I mutant captured; antibody/peptibody at 100 nM; 25° C.
Excerpt: as §1, §2

Experiment [4] concerns retinal superficial vasculature. The experiment in a line: Retinal vascularization in wild-type mice. The format is in vivo. As to conditions: 12.5 mg/kg subcutaneous at P2, retina at P5. The protocol: In one set of experiments wild-type mice were used. In another set, mice expressing a human Ang-2 in place of the wild-type mouse Ang-2 (designated “hu-Ang-2 mice”) were used. The mice at two days of age (P2) were injected subcutaneously with either control Fc or with selected anti-Ang-2 antibodies at a dose of 12.5 mg/kg. Three days later (at P5), pups were euthanized, and eyeballs were enucleated and fixed in 4% PFA for 30 minutes. Retinas were dissected, stained with Griffonia simplicifolia lectin-1 for 3 hours or overnight at 4° C. to visualize the vasculature, and flat-mounted on microscope slides. Images were taken using a Nikon Eclipse 80i microscope camera and analyzed using Adobe Photoshop CS3, Fovea 4.0, and Scion 1.63 software.
Areas of the retina covered with superficial vasculature were measured and used as a readout of antibody activity. The reduction in the size of the vascular areas in mice treated with antibody compared to Fc-treated controls is presented in Table 34. The percent reduction in vascular area reflects the anti-angiogenic potency of the antibody. (N/D=not determined)

T3 sequence (O15123 with tags, fused parts or gaps S417I): as the sequence (O15123 with tags, fused parts or gaps F469L) above, with S136I, L188F counted along it

Take “H1H685P: human anti-Ang-2 antibody, HCVR/LCVR SEQ ID NOs 18/20; also referred to as mAb1 [Antibody H1H685P]”: the results for the Kd in experiment [1], in experiment [2] and in experiment [3] were 0.0476 nM, 13.8 nM and 0.0305 nM, respectively. For the same substance, the figures for the RU in experiment [2] and in experiment [3] were 101.16 RU and 127.65 RU, respectively. In addition, in experiment [4], the “% Reduction in Vascular Area Relative to Fc Control, Wild-Type Mice” value is reported as 39.7%.
